Article PMC7735678, “Auxin response factors (ARFs) differentially regulate rice antiviral immune response against rice dwarf virus”

Target: T1, GST-OsARF12 DBD (Oryza sativa (cDNA of ZH11), UniProt Q0J951 121-247)
T1 sequence: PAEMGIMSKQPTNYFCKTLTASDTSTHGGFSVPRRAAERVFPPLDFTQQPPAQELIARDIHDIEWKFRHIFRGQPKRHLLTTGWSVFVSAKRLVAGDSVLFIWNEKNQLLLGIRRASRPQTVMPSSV
Experiment: EMSA; LightShift Chemiluminescent EMSA Kit (Thermo Scientific); buffer, salt, pH and temperature not stated
Details: protein: recombinant, tags: GST (N-terminal, pGEX-4T-1), blunt

B1: OsWRKY13 promoter AuxRE probe (dsDNA)
DNA 1: TGGTTCGTGATTAAGGGTTTGGTTACACCGTGTCCCGCTCACGGATAGGCTGCTTAATTCTCTTT
DNA 2: AAAGAGAATTAAGCAGCCTATCCGTGAGCGGGACACGGTGTAACCAAACCCTTAATCACGAACCA
label: biotin
  binding result: binds

B2: OsWRKY13 AuxRE mutant probe (mCold) (dsDNA)
DNA 1: GTTACACCGAAAAAAGCTCACGGAT
DNA 2: ATCCGTGAGCTTTTTTCGGTGTAAC
label: biotin as probe
  binding result: no binding
